The record followed here is patent US20150065381A1.

The target in experiment [1] is HIV-1 JRCSF envelope (HIV-1) (UniProt P20871). In words: cell-based or functional assay.
In experiment [2] the target is HIV-1 envelope clone G-011.c02 (multiclade gp160 clone panel) (HIV-1). In words: cell-based or functional assay.
The target of experiment [3] is HIV-1 envelope clone G-011.c05 (multiclade gp160 clone panel) (HIV-1). The experiment is described as follows: cell-based or functional assay.
Experiment [4] deals with HIV-1 envelope of gp160 clone AG-010.c11 (HIV-1). In words: cell-based or functional assay.
The target of experiment [5] is HIV-1 envelope of gp160 clone AG-010.c14 (HIV-1). The experiment is described as follows: cell-based or functional assay.
The target in experiment [6] is HIV-1 envelope of gp160 clone B-Acute-008.c11 (HIV-1). In words: cell-based or functional assay.
Experiment [7] addresses HIV-1 envelope of gp160 clone B-Acute-009-c08 (HIV-1). In words: cell-based or functional assay.
For experiment [8], the target named is HIV-1 envelope of gp160 clone B-Acute-010.c08 (HIV-1). In words: cell-based or functional assay.
For experiment [9], the target named is HIV-1 envelope of gp160 clone B-Acute-010.c09 (HIV-1). The experiment is described as follows: cell-based or functional assay.
Experiment [10] has as its target HIV-1 envelope of gp160 clone B-Chronic-014.c02 (HIV-1). In words: cell-based or functional assay.
For experiment [11], the target named is HIV-1 envelope of gp160 clone B-Acute-009-c08 (HIV-1). The experiment is described as follows: capture ELISA, original data.
Experiment [12] deals with 16055 envelope (gp120 monomer released from lysed pseudovirus) (HIV-1). The experiment is described as follows: antigen capture ELISA, mAb 0.3 ug/ml, plate 1.
The target in experiment [13] is JRFL envelope (gp120 monomer released from lysed pseudovirus) (HIV-1) (UniProt P20871). In words: antigen capture ELISA, mAb 0.3 ug/ml, plate 1.
Experiment [14] addresses 16055 envelope (gp120 monomer released from lysed pseudovirus) (HIV-1). In words: antigen capture ELISA, mAb 0.3 ug/ml, plate 2.
Experiment [15] has as its target JRFL envelope (gp120 monomer released from lysed pseudovirus) (HIV-1) (UniProt P20871). In words: antigen capture ELISA, mAb 0.3 ug/ml, plate 2.
Experiment [16] deals with 16055 envelope (gp120 monomer released from lysed pseudovirus) (HIV-1). The experiment is described as follows: antigen capture ELISA, mAb 0.8 ug/ml, plate 1.
For experiment [17], the target named is JRFL envelope (gp120 monomer released from lysed pseudovirus) (HIV-1) (UniProt P20871). In words: antigen capture ELISA, mAb 0.8 ug/ml, plate 1.
For experiment [18], the target named is 16055 envelope (gp120 monomer released from lysed pseudovirus) (HIV-1). In words: antigen capture ELISA, mAb 0.8 ug/ml, plate 2.
Experiment [19] has as its target JRFL envelope (gp120 monomer released from lysed pseudovirus) (HIV-1) (UniProt P20871). In words: antigen capture ELISA, mAb 0.8 ug/ml, plate 2.
In experiment [20] the target is 16055 envelope (gp120 monomer released from lysed pseudovirus) (HIV-1). The experiment is described as follows: antigen capture ELISA, mAb 2.5 ug/ml, plate 1.
Experiment [21] addresses JRFL envelope (gp120 monomer released from lysed pseudovirus) (HIV-1) (UniProt P20871). In words: antigen capture ELISA, mAb 2.5 ug/ml, plate 1.
The target in experiment [22] is 16055 envelope (gp120 monomer released from lysed pseudovirus) (HIV-1). The experiment is described as follows: antigen capture ELISA, mAb 2.5 ug/ml, plate 2.
Experiment [23] has as its target JRFL envelope (gp120 monomer released from lysed pseudovirus) (HIV-1) (UniProt P20871). In words: antigen capture ELISA, mAb 2.5 ug/ml, plate 2.
Experiment [24] addresses 16055 envelope (gp120 monomer released from lysed pseudovirus) (HIV-1). In words: antigen capture ELISA, mAb 7.5 ug/ml, plate 1.
In experiment [25] the target is JRFL envelope (gp120 monomer released from lysed pseudovirus) (HIV-1) (UniProt P20871). In words: antigen capture ELISA, mAb 7.5 ug/ml, plate 1.
In experiment [26] the target is 16055 envelope (gp120 monomer released from lysed pseudovirus) (HIV-1). In words: antigen capture ELISA, mAb 7.5 ug/ml, plate 2.
Experiment [27] has as its target JRFL envelope (gp120 monomer released from lysed pseudovirus) (HIV-1) (UniProt P20871). The experiment is described as follows: antigen capture ELISA, mAb 7.5 ug/ml, plate 2.

“And” between values parts separate entries of the source, which are not always exact repeats. Identical values can stand only once.

As for PGT145 (antibody), the PGT145 IC50 is 0.003 µg/mL in experiment [1]; 1.8 µg/mL in experiment [2]; 0.115 µg/mL in [3]; 8.27 µg/mL in experiment [4]; above 50 µg/mL in experiment [5]; 8.2 µg/mL in experiment [6]. The PGT145 IC50 in experiment [7] amounted to 0.007 µg/mL; in experiment [8] it was 0.032 µg/mL; in [9], 0.294 µg/mL; in experiment [10], 2.22 µg/mL. Also, in experiment [11], the ELISA OD was determined as 0.219 OD.
In experiment [11], PGT151 (antibody) yielded an ELISA OD of 0.264 OD.
For PG9 (antibody), the PG9 IC50 was 0.002 µg/mL in [1]; above 50 µg/mL in experiment [2]; 0.098 µg/mL in experiment [3]; 0.104 µg/mL in experiment [4]; 0.035 µg/mL in experiment [5]; 0.396 µg/mL in experiment [6]. Also, the PG9 IC50 stood at 0.288 µg/mL in experiment [7], 0.147 µg/mL in experiment [8], 22.2 µg/mL in experiment [9] and 0.039 µg/mL in experiment [10].
Take PGV04 (antibody): the ELISA OD was 0.054 OD and 0.065 OD in [12]; 0.344 OD and 0.34 OD in experiment [13]; 0.079 OD and 0.122 OD in [14]; 0.395 OD and 0.44 OD in [15]; 0.055 OD and 0.059 OD in experiment [16]; 0.673 OD and 0.722 OD in experiment [17]. Besides, the ELISA OD is 0.073 OD and 0.071 OD in experiment [18]; 0.796 OD and 0.763 OD in experiment [19]; 0.066 OD and 0.071 OD in [20]; 1.17 OD and 1.25 OD in experiment [21]; 0.126 OD and 0.095 OD in experiment [22]; 1.55 OD and 1.51 OD in [23]. For the same substance, the ELISA OD was 0.071 OD and 0.068 OD in [24]; 1.94 OD and 1.84 OD in experiment [25]; 0.108 OD and 0.113 OD in experiment [26]; 2.49 OD and 2.36 OD in experiment [27].
As to PG16 (antibody), the PG16 in experiment [1] was 0 µg/mL; in [2], above 50 µg/mL; in experiment [3] it was 0.024 µg/mL; in [4] it was 0.031 µg/mL; in [5] it was 0.007 µg/mL; in experiment [6] it was 5.3 µg/mL. The PG16 in [7] turned out to be 0.202 µg/mL; in [8], 0.015 µg/mL; in experiment [9] it was 1.21 µg/mL; in [10], 0.037 µg/mL. Moreover, the ELISA OD is 0.101 OD and 0.122 OD in experiment [12]; 0.063 OD and 0.097 OD in experiment [13]; 0.107 OD and 0.112 OD in experiment [14]; 0.065 OD and 0.075 OD in experiment [15]; 0.129 OD and 0.11 OD in experiment [16]; 0.064 OD and 0.071 OD in [17]. The ELISA OD in [18] was 0.156 OD and 0.105 OD; in experiment [19] it was 0.063 OD and 0.061 OD; in experiment [22], 0.195 OD and 0.122 OD; in [23], 0.081 OD and 0.096 OD; in experiment [26] it was 0.155 OD and 0.143 OD; in experiment [27] it was 0.111 OD and 0.136 OD.
